One may read the EC50 as the concentration at which the effect is half-maximal. A low value points to a more potent agent.

The target in one assay is T1, Mouse IL-17A (mouse, UniProt Q62386 26-158).
T1 chain: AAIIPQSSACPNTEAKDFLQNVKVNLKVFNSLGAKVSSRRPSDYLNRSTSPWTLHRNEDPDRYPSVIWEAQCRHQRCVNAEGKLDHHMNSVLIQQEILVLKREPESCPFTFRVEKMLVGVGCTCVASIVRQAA
As to the kind of experiment: ELISA. A general note: In an ELISA, binding on a coated surface is turned into a signal by an enzyme label.

A further assay has as its target Human IL-17A (human, UniProt Q16552 24-155). As to the kind of experiment: ELISA.

Sequence of Human IL-17A (Q16552 24-155): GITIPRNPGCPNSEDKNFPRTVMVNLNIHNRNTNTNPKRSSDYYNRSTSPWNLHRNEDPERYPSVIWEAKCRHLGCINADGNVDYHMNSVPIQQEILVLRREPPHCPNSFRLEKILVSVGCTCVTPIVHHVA

B1: Control antibody A (antibody, V domains shown)
VH: QVQLKESGPGLVQPSQTLSLTCTVSGFSLTNYYVHWVRQPPGKGLEWMGGVWNDGDTSYNSVLRSRLSITRDTSKSQVLLKMSSLQTEDTATYYCAREGREGFVGYYVMDAWGPGASVTVSS
VL: DIQMTQSPSFLSASVGERVTLSCKASQNINKYLDWFQQKLGEAPKLLIYNADNLHTGIPSRFSGSGSFSDFILTISSLQPEDDATYFCLQRESWPYTFGAGTKLELKR
As to B1, the EC50 in the assay with Mouse IL-17A and in the assay with Human IL-17A was 88 pM throughout.

The values above are taken from patent publication US20160340422A1 (published 2016).
